T1: FcγRIIb (human, UniProt P31994 43-217)
T1 construct: extracellular domain; also called FcgRIIb; 2b
T1 sequence (looked up): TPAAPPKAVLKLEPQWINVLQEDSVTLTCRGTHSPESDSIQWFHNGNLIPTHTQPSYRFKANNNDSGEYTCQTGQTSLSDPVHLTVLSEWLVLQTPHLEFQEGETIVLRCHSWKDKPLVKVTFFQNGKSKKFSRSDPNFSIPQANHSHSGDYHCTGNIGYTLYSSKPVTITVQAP

B1: GpH7-A5/GpH7-B3 variant L328_11K/GpL16-k0 (antibody, human IgG1, kappa)
heavy 1: not shown
heavy 2: not shown
light: DIVMTQSPLSLPVTPGEPASISCQASESLVHSNRNTYLHWYLQKPGQSPQLLIYKVSNRFSGVPDRFSGSGSGTDFTLKISRVEAEDVGVYYCSQNTHVPPTFGQGTKVEIERTVAAPSVFIFPPSDEQLKSGTASVVCLLNNFYPREAKVQWKVDNALQSGNSQESVTEQDSKDSTYSLSSTLTLSKADYEKHKVYACEVTHQGLSSPVTKSFNRGEC
notes: He Ab: heterodimerized anti-glypican-3 IgG1, substitution in one H chain only; also called He Ab L328K
B2: GpH7-A5/GpH7-B3 variant L328_12R/GpL16-k0 (antibody, human IgG1, kappa)
heavy 1: not shown
heavy 2: not shown
light: B1 light
notes: He Ab: heterodimerized anti-glypican-3 IgG1, substitution in one H chain only; also called He Ab L328R
B3: GpH7-B3 variant Y300_01G/GpL16-k0 (antibody, human IgG1, kappa)
heavy: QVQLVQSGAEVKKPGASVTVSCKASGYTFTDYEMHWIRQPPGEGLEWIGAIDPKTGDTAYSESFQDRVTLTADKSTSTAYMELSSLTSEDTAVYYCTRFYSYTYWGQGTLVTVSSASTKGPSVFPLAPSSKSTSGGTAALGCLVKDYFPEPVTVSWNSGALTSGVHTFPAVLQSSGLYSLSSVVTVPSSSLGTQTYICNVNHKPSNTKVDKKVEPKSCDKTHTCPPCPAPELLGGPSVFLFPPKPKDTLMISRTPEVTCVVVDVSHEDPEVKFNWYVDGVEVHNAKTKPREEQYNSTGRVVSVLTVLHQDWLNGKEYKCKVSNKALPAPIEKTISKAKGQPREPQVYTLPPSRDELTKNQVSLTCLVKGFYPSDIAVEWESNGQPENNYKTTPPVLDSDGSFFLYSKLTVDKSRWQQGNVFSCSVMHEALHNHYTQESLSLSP
light: B1 light
notes: homodimerized IgG1; mutation in both H chains; also called Ho Ab
B4: GpH7-B3 variant T335_18N/GpL16-k0 (antibody, human IgG1, kappa)
heavy: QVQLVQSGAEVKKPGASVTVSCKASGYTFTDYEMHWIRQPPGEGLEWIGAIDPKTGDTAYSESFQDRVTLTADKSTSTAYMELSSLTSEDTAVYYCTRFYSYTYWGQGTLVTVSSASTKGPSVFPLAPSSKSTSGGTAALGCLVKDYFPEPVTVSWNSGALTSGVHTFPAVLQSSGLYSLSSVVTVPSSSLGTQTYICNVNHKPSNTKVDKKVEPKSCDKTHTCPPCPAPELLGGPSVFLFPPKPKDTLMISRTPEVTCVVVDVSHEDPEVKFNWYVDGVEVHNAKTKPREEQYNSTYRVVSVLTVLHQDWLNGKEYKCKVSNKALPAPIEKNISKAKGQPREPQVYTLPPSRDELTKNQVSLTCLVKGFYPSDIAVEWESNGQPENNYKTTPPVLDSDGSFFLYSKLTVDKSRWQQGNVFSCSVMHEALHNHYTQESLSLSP
light: B1 light
notes: as for B3
B5: GpH7-B3 variant T335_16H/GpL16-k0 (antibody, human IgG1, kappa)
heavy: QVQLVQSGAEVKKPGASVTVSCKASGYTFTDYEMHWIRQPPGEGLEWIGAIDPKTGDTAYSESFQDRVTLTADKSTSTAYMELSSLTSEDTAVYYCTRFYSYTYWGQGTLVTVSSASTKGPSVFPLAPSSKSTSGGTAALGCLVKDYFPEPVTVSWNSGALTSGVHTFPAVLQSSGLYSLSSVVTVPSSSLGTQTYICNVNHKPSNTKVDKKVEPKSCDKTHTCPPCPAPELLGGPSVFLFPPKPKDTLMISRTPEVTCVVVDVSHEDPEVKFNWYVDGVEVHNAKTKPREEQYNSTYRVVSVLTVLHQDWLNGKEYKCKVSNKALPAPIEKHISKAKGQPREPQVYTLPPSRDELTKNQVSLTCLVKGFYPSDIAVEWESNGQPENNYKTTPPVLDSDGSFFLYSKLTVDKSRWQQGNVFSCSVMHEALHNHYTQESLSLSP
light: B1 light
notes: as for B3
B6: GpH7-A5/GpH7-B3 variant S298_15Y/GpL16-k0 (antibody, human IgG1, kappa)
heavy 1: not shown
heavy 2: not shown
light: B1 light
notes: heterodimerized IgG1, one H chain mutated; also called He Ab
B7: GpH7-A5/GpH7-B3 variant Y300_14T/GpL16-k0 (antibody, human IgG1, kappa)
heavy 1: not shown
heavy 2: not shown
light: B1 light
notes: as for B6
B8: GpH7-A5/GpH7-B3 variant S324_18N/GpL16-k0 (antibody, human IgG1, kappa)
heavy 1: not shown
heavy 2: not shown
light: B1 light
notes: as for B6
B9: GpH7-A5/GpH7-B3 variant S298_20W/GpL16-k0 (antibody, human IgG1, kappa)
heavy 1: not shown
heavy 2: not shown
light: B1 light
notes: as for B6
B10: GpH7-A5/GpH7-B3 variant S324_20W/GpL16-k0 (antibody, human IgG1, kappa)
heavy 1: not shown
heavy 2: not shown
light: B1 light
notes: as for B6
B11: GpH7-A5/GpH7-B3 variant S324_19Q/GpL16-k0 (antibody, human IgG1, kappa)
heavy 1: not shown
heavy 2: not shown
light: B1 light
notes: as for B6
B12: GpH7-A5/GpH7-B3 variant S324_14T/GpL16-k0 (antibody, human IgG1, kappa)
heavy 1: not shown
heavy 2: not shown
light: B1 light
notes: as for B6
B13: GpH7-A5/GpH7-B3 variant S298_19Q/GpL16-k0 (antibody, human IgG1, kappa)
heavy 1: not shown
heavy 2: not shown
light: B1 light
notes: as for B6
B14: GpH7-A5/GpH7-B3 variant S324_11K/GpL16-k0 (antibody, human IgG1, kappa)
heavy 1: not shown
heavy 2: not shown
light: B1 light
notes: as for B6
B15: GpH7-A5/GpH7-B3 variant Y300_16H/GpL16-k0 (antibody, human IgG1, kappa)
heavy 1: not shown
heavy 2: not shown
light: B1 light
notes: as for B6
B16: GpH7-A5/GpH7-B3 variant Y300_12R/GpL16-k0 (antibody, human IgG1, kappa)
heavy 1: not shown
heavy 2: not shown
light: B1 light
notes: as for B6
B17: GpH7-A5/GpH7-B3 variant S324_01G/GpL16-k0 (antibody, human IgG1, kappa)
heavy 1: not shown
heavy 2: not shown
light: B1 light
notes: as for B6
B18: GpH7-A5/GpH7-B3 variant Y300_03V/GpL16-k0 (antibody, human IgG1, kappa)
heavy 1: not shown
heavy 2: not shown
light: B1 light
notes: as for B6
B19: GpH7-A5/GpH7-B3 variant Y300_05P/GpL16-k0 (antibody, human IgG1, kappa)
heavy 1: not shown
heavy 2: not shown
light: B1 light
notes: as for B6
B20: GpH7-A5/GpH7-B3 variant S298_16H/GpL16-k0 (antibody, human IgG1, kappa)
heavy 1: not shown
heavy 2: not shown
light: B1 light
notes: as for B6
B21: GpH7-A5/GpH7-B3 variant Y300_13S/GpL16-k0 (antibody, human IgG1, kappa)
heavy 1: not shown
heavy 2: not shown
light: B1 light
notes: as for B6
B22: GpH7-A5/GpH7-B3 variant Y300_20W/GpL16-k0 (antibody, human IgG1, kappa)
heavy 1: not shown
heavy 2: not shown
light: B1 light
notes: as for B6
B23: GpH7-A5/GpH7-B3 variant Y300_06M/GpL16-k0 (antibody, human IgG1, kappa)
heavy 1: not shown
heavy 2: not shown
light: B1 light
notes: as for B6
B24: GpH7-A5/GpH7-B3 variant Y300_08L/GpL16-k0 (antibody, human IgG1, kappa)
heavy 1: not shown
heavy 2: not shown
light: B1 light
notes: as for B6
B25: GpH7-A5/GpH7-B3 variant S324_02A/GpL16-k0 (antibody, human IgG1, kappa)
heavy 1: not shown
heavy 2: not shown
light: B1 light
notes: as for B6
B26: GpH7-A5/GpH7-B3 variant S324_15Y/GpL16-k0 (antibody, human IgG1, kappa)
heavy 1: not shown
heavy 2: not shown
light: B1 light
notes: as for B6
B27: GpH7-A5/GpH7-B3 variant S324_16H/GpL16-k0 (antibody, human IgG1, kappa)
heavy 1: not shown
heavy 2: not shown
light: B1 light
notes: as for B6
B28: GpH7-A5/GpH7-B3 variant S298_18N/GpL16-k0 (antibody, human IgG1, kappa)
heavy 1: not shown
heavy 2: not shown
light: B1 light
notes: as for B6
B29: GpH7-A5/GpH7-B3 variant S324_09D/GpL16-k0 (antibody, human IgG1, kappa)
heavy 1: not shown
heavy 2: not shown
light: B1 light
notes: as for B6
B30: GpH7-A5/GpH7-B3 variant S324_12R/GpL16-k0 (antibody, human IgG1, kappa)
heavy 1: not shown
heavy 2: not shown
light: B1 light
notes: as for B6
B31: GpH7-A5/GpH7-B3 variant Y300_07I/GpL16-k0 (antibody, human IgG1, kappa)
heavy 1: not shown
heavy 2: not shown
light: B1 light
notes: as for B6
B32: GpH7-A5/GpH7-B3 variant Y300_02A/GpL16-k0 (antibody, human IgG1, kappa)
heavy 1: not shown
heavy 2: not shown
light: B1 light
notes: as for B6
B33: GpH7-A5/GpH7-B3 variant Y300_11K/GpL16-k0 (antibody, human IgG1, kappa)
heavy 1: not shown
heavy 2: not shown
light: B1 light
notes: as for B6
B34: GpH7-A5/GpH7-B3 variant Y300_09D/GpL16-k0 (antibody, human IgG1, kappa)
heavy 1: not shown
heavy 2: not shown
light: B1 light
notes: as for B6
B35: GpH7-A5/GpH7-B3 variant S324_10E/GpL16-k0 (antibody, human IgG1, kappa)
heavy 1: not shown
heavy 2: not shown
light: B1 light
notes: as for B6

Target: T2, FcγRIa extracellular domain with C-terminal His tag (human, UniProt P12314 16-292)
T2 construct: extracellular domain; Soluble receptor expressed in FreeStyle293 cells; analyte in Biacore; also called FcgRI; FcgRIa; not shown: His tag at the C terminus
Assay: SPR (Biacore); He/Con_1a divided by He/Con_2b (FcγRIIb)
Method: (§1) The heterodimerized antibodies He Abs in which one of the H chains was introduced with an alteration were assayed for their binding activities to each activating FcγR and inhibitory FcγR according to the method described in Example 4. […] The activating FcγRs in FIGS. 26, 27, 28, and 29 are FcγRIa, FcγRIIa (R), FcγRIIa (H), and FcγRIIIa, respectively.
(§2) Analysis of interaction between objective antibody and the FcγR was carried out using Biacore T100 (GE Healthcare). HBS-EP+ (GE Healthcare) was used as the running buffer, and the measurement temperature was set to 25° C. Chips produced by immobilizing the antigen peptide by the amine coupling method to a Series S Sencor Chip CM5 (GE Healthcare), or alternatively, chips produced by allowing preliminarily biotinylated antigen peptides to interact with and immobilize onto a Series S Sensor Chip SA (certified) (GE Healthcare) were used. Antibodies of interest were captured onto an antigen peptide-immobilized chip, and allowed to interact to each FcγR diluted with running buffer. To regenerate and repeatedly use the chip, the antibodies captured on the chip were washed off by reacting 10 mM glycine-HCl, pH 1.5.

T2 sequence (P12314 16-292): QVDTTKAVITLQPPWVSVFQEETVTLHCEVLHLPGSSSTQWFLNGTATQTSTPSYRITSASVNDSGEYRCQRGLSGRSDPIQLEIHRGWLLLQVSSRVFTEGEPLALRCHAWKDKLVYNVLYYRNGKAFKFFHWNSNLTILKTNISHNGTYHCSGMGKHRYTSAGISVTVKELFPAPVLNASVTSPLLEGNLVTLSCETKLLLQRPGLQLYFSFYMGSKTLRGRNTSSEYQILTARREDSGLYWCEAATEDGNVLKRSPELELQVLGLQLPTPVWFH

Binder	He_1a/2b (Ia/IIb)
B1	10.5
B2	8.51

Target: T3, FcγRIa (human, UniProt P12314 16-292)
T3 construct: extracellular domain; also called FcgRI; CD64; not shown: C-terminal His tag
Assay: SPR (Biacore), antibody captured on antigen peptide chip, FcγRIa as analyte; relative binding amount
Method: as §2
T3 sequence (P12314 16-292): as above

Binder	Ho/Con_1a
B3	109 % of control (GpH7-B3/GpL16-k0 = 100)
B4	102 % of control (GpH7-B3/GpL16-k0 = 100)
B5	104 % of control (GpH7-B3/GpL16-k0 = 100)

Target: T2, FcγRIa extracellular domain with …
Assay: SPR (Biacore), antibody captured on antigen peptide chip, FcγR as analyte; binding relative to GpH7-A5/GpH7-B3/GpL16-k0 = 100
Method: as §1, §2

Binder	He/Con_1a (Ia binding)
B1	79.2 % of control (control = 100)
B2	78.6 % of control (control = 100)

Target: T1, FcγRIIb
Assay: SPR (Biacore), relative to GpH7-A5/GpH7-B3/GpL16-k0 = 100

Binder	He/Con_2b (IIb binding)
B6	61.4 relative (control = 100)
B7	55.6 relative (control = 100)
B8	81.1 relative (control = 100)
B9	41.1 relative (control = 100)
B10	87.5 relative (control = 100)
B11	66.8 relative (control = 100)
B12	88.4 relative (control = 100)
B13	73.3 relative (control = 100)
B14	68.6 relative (control = 100)
B15	87 relative (control = 100)
B16	41.2 relative (control = 100)
B17	81.1 relative (control = 100)
B18	73.9 relative (control = 100)
B19	7.3 relative (control = 100)
B20	63.5 relative (control = 100)
B21	53.9 relative (control = 100)
B22	84.1 relative (control = 100)
B23	84.3 relative (control = 100)
B24	73.6 relative (control = 100)
B25	78.3 relative (control = 100)
B26	88.2 relative (control = 100)
B27	83.5 relative (control = 100)
B28	48.1 relative (control = 100)
B29	85.8 relative (control = 100)
B30	63.1 relative (control = 100)
B31	74.5 relative (control = 100)
B32	69.2 relative (control = 100)
B33	51.6 relative (control = 100)
B34	93.2 relative (control = 100)
B35	77.4 relative (control = 100)

Target: T4, FcγRIa (human, UniProt P12314 16-292)
T4 construct: extracellular domain; also called FcgRI; FcgRIa
Assay: as above
T4 sequence (P12314 16-292): as above

Binder	He/Con_1a (Ia binding)
B6	107 relative (control = 100)
B7	112 relative (control = 100)
B8	116 relative (control = 100)
B9	104 relative (control = 100)
B10	114 relative (control = 100)
B11	112 relative (control = 100)
B12	121 relative (control = 100)
B13	109 relative (control = 100)
B14	102 relative (control = 100)
B15	111 relative (control = 100)
B16	105 relative (control = 100)
B17	98.8 relative (control = 100)
B18	117 relative (control = 100)
B19	60.2 relative (control = 100)
B20	109 relative (control = 100)
B21	111 relative (control = 100)
B22	112 relative (control = 100)
B23	112 relative (control = 100)
B24	113 relative (control = 100)
B25	103 relative (control = 100)
B26	114 relative (control = 100)
B27	113 relative (control = 100)
B28	108 relative (control = 100)
B29	104 relative (control = 100)
B30	102 relative (control = 100)
B31	108 relative (control = 100)
B32	112 relative (control = 100)
B33	107 relative (control = 100)
B34	112 relative (control = 100)
B35	105 relative (control = 100)

Target: T4, FcγRIa
Assay: SPR (Biacore); He/Con_1a (FcgRIa) divided by He/Con_2b (FcgRIIb)
Method: as §1, §2

Binder	Ia/IIb He_1a/2b
B6	1.75
B7	2.01
B8	1.42
B9	2.53
B10	1.31
B11	1.68
B12	1.37
B13	1.49
B14	1.49
B15	1.27
B16	2.54
B17	1.22
B18	1.58
B19	8.22
B20	1.71
B21	2.06
B22	1.34
B23	1.33
B24	1.54
B25	1.31
B26	1.29
B27	1.35
B28	2.25
B29	1.21
B30	1.61
B31	1.45
B32	1.62
B33	2.07
B34	1.21
B35	1.35

Reference: US20180155451A1 (published 2018)
